Data on two molecules can be found in patent publication US7740850B2, “PDGFRβ-specific antibodies” (ImClone, LLC, priority 2007, dated 2010).

Experiment [1] has as its system BxPC-3 pancreatic carcinoma xenograft. Description: Subcutaneous tumor xenograft model. In kind it is in vivo, mouse. Conditions: for Tumor Volume T/C %: BxPC3 xenograft, monotherapy. The method, then:
Six xenograft models, SK-OV-3, OV-CAR-8, BxPC-3, OV-CAR-5, Caki-1 and NCI-H460 (A to F, respectively) were used to examine the effects of 1B3 on xenograft tumors in athymic nude mice. Mice with established tumors (˜250-300 mm^3) were randomly grouped and treated with 1B3, normal human IgG, or saline by intraperitoneal injection twice weekly (except for BxPC-3 model where the mice were treated three times a week) at the dose indicated.
Subcutaneous xenografts of BxPC-3 (A) or 5×10^6 NCI-H460 (B) were established in female athymic (nu/nu) mice. When tumors reached ˜300-350 mm^3, mice were randomized and divided into four groups (n=12), and treated with USP saline, 40 mg/kg of 1B3, 40 mg/kg of DC101 or 40 mg/kg 1B3 plus 40 mg/kg DC101, three times a week.
Six human xenograft tumor models, including three ovarian carcinoma (SK-OV-3, OV-CAR-5 and OV-CAR-8), one pancreatic carcinoma (BxPC3), one lung carcinoma (NCI-H460), and one kidney carcinoma (Caki-1), were used to assess the antitumor activity of 1B3 in vivo. Athymic (nu/nu) mice (female, 7-8 weeks of age) were housed for 7-10 days before xenograft implantation. Each mouse was injected subcutaneously with 3-10×10^6 cells of SK-OV-3, OVCAR-5, OVCAR-8, Caki-1, BxPC3 or NCI-H460 tumor cells. When tumors reached approximately 250-300 mm^3, mice were randomized into groups of 10 to 12 animals each and treated by intraperitoneal injection, 2 to 3 times per week, with 1B3, DC101, or 1B3 in combination with DC101. Human IgG and/or USP saline were used as control groups. Tumor sizes and mouse body weight were measured twice a week. Tumor volume was calculated using the formula: π/6×(length×width^2), where length=longest diameter and width=diameter perpendicular to length. The ratio of average tumor volume in the treatment group versus that in the control group (T/C %) was calculated. Statistic analysis was performed by Student's t-test.
To study the antitumor effects of monotherapy with an anti-PDGFRβ antibody, mice were treated with 1B3, normal human IgG, or saline twice weekly by intraperitoneal injections. In SK-OV-3 model, tumor-bearing mice were given 1B3 at 6, 20, or 60 mg/kg dose.
Athymic nude mice bearing xenografted tumors of 300-350 mm^3 size were randomized and divided into four treatment groups (n=12/group), and were treated by intraperitoneal injections three times a week with saline, 1B3 (40 mg/kg), DC101 (40 mg/kg), or 1B3 (40 mg/kg) plus DC101 (40 mg/kg).
The five human xenograft tumor models described above (OVCAR-5 and OVCAR-8, BxPC3, NCI-H460, and Caki-1) were used to assess the antitumor activity of 2C5 in vivo.

For experiment [2], the system named is Akt and p44/42 MAP kinase in D122 cells. Put plainly: PDGF-BB-stimulated downstream signaling (Western blot). Format: cell-based, mouse. The source says: To study the downstream signaling, the cell lysate from the above treatment were resolved by a 4-12% NuPAGE Bis-Tris gel. Phosphorylated Akt and p44/42 mitogen-activated protein kinase (MAPK) were detected using an anti-phospho-Akt and an anti-phospho-p44/p42 MAPK and p44/p42 MAPK, respectively (eBioscience, San Diego, Calif.).

The test system of the next experiment is β1-3. Description: Epitope mapping, shorter version of PDGFRβ (D1D2D3). The note with it: ✓ / X, key not given. Format: binding. The method, then: (§1) 2C5 binds to domain 1 (D1) and domain 2 (D2) of PDGFRβ. Various chimeric constructs of PDGFRβ and PDGFRα were first made by domain swapping, starting from N-terminus to C-terminus with PDGFRβ domain(s) replacing PDGFRα domain(s). The PDGFRβ/α chimera were tested for the ability of 2C5 binding. Shorter versions of PDGFRβ, including D1D2, D2D3 and D1D2D3, were then made to confirm the 2C5 binding domains on PDGFRβ.

A further experiment addresses T1, m5β (Mus musculus, UniProt P05622).
T1 sequence (P05622 32-531 limits assumed): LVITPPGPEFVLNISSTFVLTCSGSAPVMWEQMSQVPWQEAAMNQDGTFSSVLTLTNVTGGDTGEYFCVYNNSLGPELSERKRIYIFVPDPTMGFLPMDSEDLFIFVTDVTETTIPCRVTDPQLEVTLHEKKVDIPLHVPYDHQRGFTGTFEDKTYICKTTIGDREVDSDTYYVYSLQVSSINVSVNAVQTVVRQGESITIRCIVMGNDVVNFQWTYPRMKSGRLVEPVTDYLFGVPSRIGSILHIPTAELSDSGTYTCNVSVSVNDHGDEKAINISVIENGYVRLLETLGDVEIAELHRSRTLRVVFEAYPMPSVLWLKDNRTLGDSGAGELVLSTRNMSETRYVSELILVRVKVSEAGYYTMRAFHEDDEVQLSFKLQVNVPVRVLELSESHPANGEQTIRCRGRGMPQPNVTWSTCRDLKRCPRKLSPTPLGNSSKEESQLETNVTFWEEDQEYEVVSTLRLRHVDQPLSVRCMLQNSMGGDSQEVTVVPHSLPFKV
Description: Epitope mapping. Format: binding. The note with it: ✓ / X, key not given. The procedure:
as §1

The subject of the next experiment is 2β3α. Put plainly: Epitope mapping, PDGFRβ/α chimera. Format: binding. Conditions: ✓ / X, key not given. The method, then: Various chimeric constructs of PDGFRβ and PDGFRα were first made by domain swapping, starting from N-terminus to C-terminus with PDGFRβ domain(s) replacing PDGFRα domain(s). The PDGFRβ/α chimera were tested for the ability of 2C5 binding. Shorter versions of PDGFRβ, including D1D2, D2D3 and D1D2D3, were then made to confirm the 2C5 binding domains on PDGFRβ.

B1: 1B3: human anti-mouse PDGFRβ antibody from Fab phage display library, human κ/γ1 constant regions; SEQ ID NOS in Table 1 (antibody, listed as Homo sapiens, V domains shown)
VH: QVQLQESGGGLVKPGGSLRLSCAASGFTFSSYSMNWVRQAPGKGLEWVSSISSSSSYIYYADSVKGRFTISRDNSKNTLYLQMNSLRAEDTAVYYCAKGGRPLLVFDFWGQGTLVTVS
VL: EIVMTQSPGTLSLSPGERATLSCRASQSVSSSYLAWYQQKPGQAPRLLIYDASKRATGIPARFSGSGSGTDFTLTISTLESEDSAVYYCQQRGYWPPITFGQGTRLEIKR
modifications: human kappa/gamma1 constant regions
For B1, the “tumor regression, number of mice” value in experiment [1] (BxPC3, 40 mg/kg each antibody i.p. three times a week) is reported as “no regressions”. Besides, the antitumor activity result in experiment [1] (BxPC3, monotherapy 40 mg/kg i.p. three times a week) is “failed to show any antitumor activity”. Moreover, the “Tumor Volume T/C %” value in experiment [1] is 100%. Moreover, the “inhibition of PDGF-BB-stimulated phosphorylation of Akt and p44/42 MAP kinase” value in experiment [2] is listed as “potently inhibited”.

B2: 2C5: PDGFRβ-specific human antibody binding both human and murine PDGFRβ; SEQ ID NOS in Table 1 (antibody, listed as Homo sapiens, V domains shown)
VH: QVQLVQSGAEVKKPGSSVKVSCKASGGTFSSYAISWVRQAPGQGLEWMGRIIPILGIANYAQKFQGRVTITADKSTSTAYMELSSLRSEDTAVYYCARDMGSRNYYYFYWGQGTLVTVSS
VL: EIVLTQSPATLSLSPGERATLSCRASQSVGRYLAWYQQKPGQAPRLLIYGASNRATGIPARFSGSGSGTDFTLTISSLEPEDFAVYYCQQRSNWPLTFGGGTKVEIK
Turning to B2, the “binding to β1-3” value in the experiment on β1-3 is “✓”. In addition, in the experiment with m5β, the “binding to m5β” value is “✓”. The “binding to 2β3α” value with 2β3α is “✓”. Further, the “Tumor Volume T/C %” value in experiment [1] amounted to 100%. In experiment [2], the “inhibition of PDGF-BB-stimulated phosphorylation of Akt and p44/42 MAP kinase” value is on record as “potently inhibited”.
